Assays:
[1] = molecular target: Flag-tagged WT PKM2 expressed in 32D BCR-ABL cells (UniProt P14618); assay: SEC; cell lysate of 32D BCR-ABL cells on Superdex 200 10/300GL, 50 mM phosphate, 0.15 M NaCl, pH 7.2; fractions by UV absorbance and western blot
[2] = molecular target: recombinant His-tagged PKM2 after the in vitro SUMOylation reaction (SUMO1 conjugated at K270) (UniProt P14618); assay: SEC; samples of the in vitro SUMOylation reaction (recombinant PKM2 or PKM1 with or without purified SUMO1, E1 and E2); UV absorbance and western blot of the fractions with anti-PKM2 or anti-PKM1; tetramer, dimer, monomer by molecular weight

Flag-tagged WT PKM2 expressed in 32D BCR-ABL cells, P14618 1-531 (enzyme; other documents disagree on this pair), sequence (P14618 whole entry): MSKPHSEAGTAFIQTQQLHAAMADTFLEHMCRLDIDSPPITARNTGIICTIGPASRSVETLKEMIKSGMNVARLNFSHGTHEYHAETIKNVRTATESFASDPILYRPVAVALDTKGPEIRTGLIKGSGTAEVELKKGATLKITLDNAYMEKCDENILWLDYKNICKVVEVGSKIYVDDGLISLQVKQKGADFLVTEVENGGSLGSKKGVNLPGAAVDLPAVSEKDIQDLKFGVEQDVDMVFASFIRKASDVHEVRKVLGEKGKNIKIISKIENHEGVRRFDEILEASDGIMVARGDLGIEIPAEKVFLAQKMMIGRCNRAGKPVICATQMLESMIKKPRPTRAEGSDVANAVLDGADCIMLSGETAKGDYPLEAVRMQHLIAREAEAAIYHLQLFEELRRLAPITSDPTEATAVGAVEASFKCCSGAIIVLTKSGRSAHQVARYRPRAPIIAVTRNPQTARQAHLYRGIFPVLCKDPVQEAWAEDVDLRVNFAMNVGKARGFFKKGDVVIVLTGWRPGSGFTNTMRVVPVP
recombinant His-tagged PKM2 after the in vitro SUMOylation reaction (SUMO1 conjugated at K270) (from UniProt P14618 1-531; P63165 1-97) (enzyme), sequence (P14618 whole entry): as above
recombinant His-tagged PKM2 after the in vitro SUMOylation reaction (SUMO1 conjugated at K270) (from UniProt P14618 1-531; P63165 1-97) (enzyme), sequence (P63165 1-97): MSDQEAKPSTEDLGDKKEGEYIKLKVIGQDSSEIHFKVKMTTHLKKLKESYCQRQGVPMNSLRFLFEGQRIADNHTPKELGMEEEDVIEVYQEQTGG

With “Flag-tagged WT PKM2 expressed in 32D BCR-ABL cells, P14618 1-531 (enzyme; other documents disagree on this pair)” the stoichiometry N [1] was 2.

Substance “recombinant His-tagged PKM2 after the in vitro SUMOylation reaction (SUMO1 conjugated at K270) (from UniProt P14618 1-531; P63165 1-97) (enzyme)” has a stoichiometry N [2] of 2.
